Assay results reported in US12173037 (TRUSTEES OF COLUMBIA UNIVERSITY IN THE CITY OF NEW YORK, dated 2024).

Molecular target: the molecule itself
Assay: Western blot, homodimer formation

B1: K3 NGAL mutant protein (ligand)
chain: QDSTSDLIPAPPLSSVPLQQNFQDNQFQGKWYVVGLAGNAILREDEDPQKMYATIYELKEDKSYNVTSVLFRDDGCDYWIRTFVPGCQPGEFTLGNIQSYPGLTSYLVRVVSTNYNQFAMVFFKKVSQNQEYFKITLYGRTKELTSELQENFIRFSKSLGLPENNIVFPVPIDQCIDG
notes: Mutant of human NGAL; Expressed in bacteria like the wild type and labelled with Alexa 568 in the uptake assays; also called K3 Scn-Ngal; Mut1
B1: binds.
